According to US20250051460A1 (Boehringer Ingelheim, published 2025):
Where “and” joins values, the source holds several entries; their conditions need not be identical. Equal entries are not always repeated. Where two headings read alike, the source gives them in different places.

Experiments:
Test in all cases: cell-based or functional assay
human VEGF-A [1] = target: T1, human VEGF-A (human, UniProt P15692-4 27-191)
human VEGF-A [2] = target: T1, human VEGF-A; remark: listed apart in the source
human VEGF-A [3] = target: T1, human VEGF-A; remark: listed apart in the source
human VEGF-A [4] = target: T1, human VEGF-A; remark: listed apart in the source
human VEGF-A [5] = target: T1, human VEGF-A; remark: listed apart in the source
human VEGF-A [6] = target: T1, human VEGF-A; remark: listed apart in the source

T1 sequence (P15692 other isoform, or with tags, fused parts or gaps limits assumed): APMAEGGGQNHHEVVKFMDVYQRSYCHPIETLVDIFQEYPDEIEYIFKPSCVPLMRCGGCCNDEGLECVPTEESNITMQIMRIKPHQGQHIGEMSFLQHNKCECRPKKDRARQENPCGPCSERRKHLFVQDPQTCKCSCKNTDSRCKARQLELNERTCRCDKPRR

Row | Binder | concentration for full inhibition of VEGF-induced HRMEC proliferation (human VEGF-A [1]) [nM] | Bottom plateau (ERK1/2 phosphorylation, counts) (human VEGF-A [2]) [counts] | Bottom plateau (Src phosphorylation, counts) (human VEGF-A [2]) [counts] | IC50 (ERK1/2 phosphorylation) (human VEGF-A [2]) [nM] | IC50 (Src phosphorylation) (human VEGF-A [2]) [nM] | Bottom plateau (ERK1/2 phosphorylation, counts) (human VEGF-A [3]) [counts] | Bottom plateau (Src phosphorylation, counts) (human VEGF-A [3]) [counts] | IC50 (ERK1/2 phosphorylation) (human VEGF-A [3]) [nM] | IC50 (Src phosphorylation) (human VEGF-A [3]) [nM] | IC50 (ERK1/2 phosphorylation) (human VEGF-A [1]) | Bottom plateau (ERK1/2 phosphorylation, counts) (human VEGF-A [5]) [counts] | Bottom plateau (Src phosphorylation, counts) (human VEGF-A [5]) [counts] | IC50 (ERK1/2 phosphorylation) (human VEGF-A [5]) [nM] | IC50 (Src phosphorylation) (human VEGF-A [5]) [nM] | Bottom plateau (ERK1/2 phosphorylation, counts) (human VEGF-A [6]) [counts] | Bottom plateau (Src phosphorylation, counts) (human VEGF-A [6]) [counts] | IC50 (ERK1/2 phosphorylation) (human VEGF-A [6]) [nM] | IC50 (Src phosphorylation) (human VEGF-A [6]) [nM] | also measured
1 | TPP-14937 (bispecific antibody, human IgG1, kappa, L234A L235A) heavy: not shown light: DIQMTQSPSSLSASVGDRVTITCRTSENVYSNLAWYQQKPGKAPKLLIYAASNLQSGVPSRFSGSGSGTDYTFTISSLQPEDIATYYCQHFWGSPFTFGQGTKLEIKRTVAAPSVFIFPPSDEQLKSGTASVVCLLNNFYPREAKVQWKVDNALQSGNSQESVTEQDSKDSTYSLSSTLTLSKADYEKHKVYACEVTHQGLSSPVTKSFNRGEC | 4 | -927 | 4570 | 5.6 | 5.8 | -926 | 4570 | 5.58 | 5.83 | – | – | – | – | – | – | – | – | – | –
2 | TPP-14936 (bispecific antibody, human IgG1, kappa, L234A L235A) heavy: not shown light: DIQMTQSPSSLSASVGDRVTITCRTSENVYSNLAWYQQKPGKAPKLLIYAASNLQSGVPSRFSGSGSGTDYTFTISSLQPEDIATYYCQHFWGSPFTFGQGTKLEIKRTVAAPSVFIFPPSDEQLKSGTASVVCLLNNFYPREAKVQWKVDNALQSGNSQESVTEQDSKDSTYSLSSTLTLSKADYEKHKVYACEVTHQGLSSPVTKSFNRGEC | 1 | -341 | 4650 | 3.5 | 3.4 | -340 | 4650 | 3.49 | 3.4 | – | – | – | – | – | – | – | – | – | –
3 | TPP-11736 (bispecific antibody, human IgG1, kappa, L234A L235A) heavy: not shown light: DIQMTQSPSSLSASVGDRVTITCRTSENVYSNLAWYQQKPGKAPKLLIYAASNLQSGVPSRFSGSGSGTDYTFTISSLQPEDIATYYCQHFWGSPFTFGQGTKLEIKRTVAAPSVFIFPPSDEQLKSGTASVVCLLNNFYPREAKVQWKVDNALQSGNSQESVTEQDSKDSTYSLSSTLTLSKADYEKHKVYACEVTHQGLSSPVTKSFNRGEC | – | 3690 | 6300 | 5.6 | 4 | 3690 | 6300 | 5.59 | 3.97 | ~4 nM and ~10 nM | 3690 | 6300 | 5.59 | 3.97 | 3690 | 6300 | 5.59 | 3.97 | IC50 (p38 MAPK phosphorylation) (human VEGF-A [1]): ~7.4 nM; IC50 (ERK1/2 phosphorylation) (human VEGF-A [4]): 9.1 nM; IC50 (p38 MAPK phosphorylation) (human VEGF-A [4]): 7.7 nM
4 | TPP-11738 (bispecific antibody, human IgG1, kappa, L234A L235A) heavy: not shown light: DIQMTQSPSSLSASVGDRVTITCRTSENVYSNLAWYQQKPGKAPKLLIYAASNLQSGVPSRFSGSGSGTDYTFTISSLQPEDIATYYCQHFWGSPFTFGQGTKLEIKRTVAAPSVFIFPPSDEQLKSGTASVVCLLNNFYPREAKVQWKVDNALQSGNSQESVTEQDSKDSTYSLSSTLTLSKADYEKHKVYACEVTHQGLSSPVTKSFNRGEC | – | – | – | – | – | – | – | – | – | ~4 nM and ~10 nM | – | – | – | – | – | – | – | – | –
5 | TPP-14938 (bispecific antibody, human IgG1, kappa, L234A L235A) heavy: not shown light: DIQMTQSPSSLSASVGDRVTITCRASQVIRRSLAWYQQKPGKAPKLLIYAASNLASGVPSRFSGSGSGTDFTLTISSLQPEDFATYYCQQSNTSPLTFGQGTKVEIKRTVAAPSVFIFPPSDEQLKSGTASVVCLLNNFYPREAKVQWKVDNALQSGNSQESVTEQDSKDSTYSLSSTLTLSKADYEKHKVYACEVTHQGLSSPVTKSFNRGEC | – | – | – | – | – | – | – | – | – | – | 1330 | 5480 | 2.71 | 1.8 | 1330 | 5480 | 2.71 | 1.8 | –
6 | TPP-14939 (bispecific antibody, human IgG1, kappa, L234A L235A) heavy: not shown light: DIQMTQSPSSLSASVGDRVTITCRASQVIRRSLAWYQQKPGKAPKLLIYAASNLASGVPSRFSGSGSGTDFTLTISSLQPEDFATYYCQQSNTSPLTFGQGTKVEIKRTVAAPSVFIFPPSDEQLKSGTASVVCLLNNFYPREAKVQWKVDNALQSGNSQESVTEQDSKDSTYSLSSTLTLSKADYEKHKVYACEVTHQGLSSPVTKSFNRGEC | – | – | – | – | – | – | – | – | – | – | 1140 | 5540 | 2.51 | 1.16 | 1140 | 5540 | 2.51 | 1.16 | –
